# Measured values taken from patent US20200247855A1, “THERAPY AND DIAGNOSTICS” (OXFORD UNIVERSITY INNOVATION LIMITED, priority 2017, published 2020).
# Like-named read-outs stand apart in the source and are kept apart here.
# T1: CCL23_HUMAN (Homo sapiens, UniProt P55773)
# T1 sequence (P55773 22-120): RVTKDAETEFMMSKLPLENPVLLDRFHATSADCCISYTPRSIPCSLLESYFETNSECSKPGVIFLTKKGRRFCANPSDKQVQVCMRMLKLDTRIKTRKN
# T2: CCL18_HUMAN (Homo sapiens, UniProt P55774)
# T2 sequence (P55774 21-89): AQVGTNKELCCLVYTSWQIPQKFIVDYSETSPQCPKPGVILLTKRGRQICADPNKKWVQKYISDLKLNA
# T3: CCL1_HUMAN (Homo sapiens, UniProt P22362)
# T3 sequence (P22362 24-96): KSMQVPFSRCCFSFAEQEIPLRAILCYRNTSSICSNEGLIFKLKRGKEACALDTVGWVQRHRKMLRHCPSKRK
# T4: CCL21_HUMAN (Homo sapiens, UniProt O00585)
# T4 sequence (O00585 24-134): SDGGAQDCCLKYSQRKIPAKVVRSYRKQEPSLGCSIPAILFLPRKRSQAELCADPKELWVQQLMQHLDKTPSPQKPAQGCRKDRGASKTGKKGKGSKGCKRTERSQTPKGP
# T5: CCL22_HUMAN (Homo sapiens, UniProt O00626)
# T5 sequence (O00626 25-93): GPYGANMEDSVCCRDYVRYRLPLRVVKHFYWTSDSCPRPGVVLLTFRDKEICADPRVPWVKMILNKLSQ
# T6: CCL19_HUMAN (Homo sapiens, UniProt Q99731)
# T6 sequence (Q99731 22-98): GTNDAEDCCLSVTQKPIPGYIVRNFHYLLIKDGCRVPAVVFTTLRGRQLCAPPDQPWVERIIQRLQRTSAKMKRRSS
# B1: EVASIN4: previously described tick CKBP evasin 4, from Rhipicephalus sanguineus (protein, listed as Rhipicephalus sanguineus)
# chain: EVPQMTSSSAPDLEEEDDYTAYAPLTCYFTNSTLGLLAPPNCSVLCNSTTTWFNETSPNNASCLLTVDFLTQDAILQENQPYNCSVGHCDNGTCAGPPRHAQCW
# B2: P1243_AMBAM: tick CKBP, Amblyomma americanum; AAM-02 stated identical (protein, listed as Amblyomma americanum)
# chain: RNHTEDNSTEYYDYEEARCACPARHLNNTNGTVLKLLGCHYFCNGTLCTAPDGYPCYNLTAQQVRTLTTYPNTSCAVGVCMKGTCVKNGTMEQCFKTP
# B3: P672_RHIPU: tick CKBP, Rhipicephalus pulchellus (protein, listed as Rhipicephalus pulchellus)
# chain: VCEVSEQEGVGEDNATEDEDYEDFFKPVTCYFANSTVGPLRPPNCTVVCTNNTAWWNDTKSDGGHCYSEYRPEKRTHSREIYNCTIGVCGNGTCIANHTYADCW
# Assays:
# CCL23_HUMAN [1] = target: T1, CCL23_HUMAN; details: read-out: Kd, CCL23_HUMAN, previously described evasins; data obtained from publications [20-22,32]; cited from earlier work
# CCL18_HUMAN = target: T2, CCL18_HUMAN; details: read-out: Kd, CCL18_HUMAN, previously described evasins; data obtained from publications [20-22,32]; cited from earlier work
# CCL1_HUMAN = target: T3, CCL1_HUMAN; details: read-out: Kd, CCL1_HUMAN, previously described evasins; data obtained from publications [20-22,32]; cited from earlier work
# CCL20_HUMAN = CCL20_HUMAN (Homo sapiens, UniProt P78556); details: data obtained from publications [20-22,32]; cited from earlier work
# Sequence of CCL20_HUMAN (P78556 27-96): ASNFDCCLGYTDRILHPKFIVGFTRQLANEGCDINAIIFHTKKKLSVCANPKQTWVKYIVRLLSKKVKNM
# CCL11_HUMAN [2] = target: T7, CCL11_HUMAN (Homo sapiens, UniProt P51671); details: read-out: Kd, CCL11_HUMAN, previously described evasins; data obtained from publications [20-22,32]; cited from earlier work
# T7 sequence (P51671 24-97): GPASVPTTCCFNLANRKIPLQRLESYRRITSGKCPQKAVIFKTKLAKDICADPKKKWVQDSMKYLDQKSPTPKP
# CCL21_HUMAN = target: T4, CCL21_HUMAN; details: data obtained from publications [20-22,32]; read-out: Kd, CCL21_HUMAN, previously described evasins; cited from earlier work
# CCL22_HUMAN = target: T5, CCL22_HUMAN; details: read-out: Kd, CCL22_HUMAN, previously described evasins; data obtained from publications [20-22,32]; cited from earlier work
# CCL19_HUMAN = target: T6, CCL19_HUMAN; experiment: Biolayer interferometry (BLI) binding
# Procedure, shortened: (§1)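 Analyte: chemokine, screened at 300 nM then as a dose series for binders. Ligand: purified His-tagged tick evasin on Ni-NTA sensors. Kd obtained by fitting association, equilibrium and dissociation traces.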
# CCL11_HUMAN [3] = target: T7, CCL11_HUMAN; experiment: Biolayer interferometry (BLI) binding
# Procedure, shortened: as §1
# CCL23_HUMAN [4] = target: T1, CCL23_HUMAN; experiment: Biolayer interferometry (BLI) binding
# Procedure, shortened: as §1
molecule,measurement,setting,value
B1,Kd,CCL23_HUMAN [1],4.43 nM
same,Kd,CCL18_HUMAN,0.03 nM
same,Kd,CCL1_HUMAN,0.2 nM
same,"Kd, CCL20_HUMAN, previously described evasins",CCL20_HUMAN,No Binding
same,Kd,CCL11_HUMAN [2],0.34 nM
same,Kd,CCL21_HUMAN,0.01 nM
same,Kd,CCL22_HUMAN,0.43 nM
B2,Kd,CCL19_HUMAN,0.592 nM
same,Kd,CCL11_HUMAN [3],6.03 nM
B3,Kd,CCL23_HUMAN [4],10 nM
